Measurements taken from patent US20210246166A1 (Bayer, published 2021).
Values belong to the binder of their own block, whether it stands above or below them. Numbered stars: 1 amine (or outer) side, 2 acyl side, 3 side chain; on linkers, the order of the positions; unused ones are H or OH. Bridge positions count the residues as written; N and C are the ends. Square brackets hold non-standard residues; d marks the D form. Primed or numbered codes have the meaning given here. Ends that are not written are not given here. TTDS(3) = 1,13-Diamino-4,7,10-trioxatridecan-succinamic acid; Pro(3S,4R-methano) = O=C(O)[C@H]1NC[C@@H]2C[C@@H]21; cPrCO(1-aminomethyl) = O=C(C1(CN[*:1])CC1)[*:2]; Oic = O=C(O)[C@@H]1C[C@@H]2CCCC[C@@H]2N1; PEG6 = NCCOCCOCCOCCOCCOCCOCCC(=O)O; NMeI = CC[C@H](C)[C@H](NC)C(=O)O; tBuAla = CC(C)(C)C[C@H](N)C(=O)O; Pen = CC(C)(S)[C@H](N)C(=O)O; NMeC = CN[C@@H](CS)C(=O)O; PEG3 = NCCOCCOCCOCCC(=O)O; Nle = CCCC[C@H](N)C(=O)O; Orn = NCCC[C@H](N)C(=O)O; Aze = O=C(O)[C@@H]1CCN1; Nva = CCC[C@H](N)C(=O)O; Sar = CNCC(=O)O

Legend:
[1] = target: T1, recombinant human MASP1 active protease (amino acids 297-699, C-terminal His Tag) (human, UniProt P48740 297-699); assay: cell-based or functional assay
T1 sequence: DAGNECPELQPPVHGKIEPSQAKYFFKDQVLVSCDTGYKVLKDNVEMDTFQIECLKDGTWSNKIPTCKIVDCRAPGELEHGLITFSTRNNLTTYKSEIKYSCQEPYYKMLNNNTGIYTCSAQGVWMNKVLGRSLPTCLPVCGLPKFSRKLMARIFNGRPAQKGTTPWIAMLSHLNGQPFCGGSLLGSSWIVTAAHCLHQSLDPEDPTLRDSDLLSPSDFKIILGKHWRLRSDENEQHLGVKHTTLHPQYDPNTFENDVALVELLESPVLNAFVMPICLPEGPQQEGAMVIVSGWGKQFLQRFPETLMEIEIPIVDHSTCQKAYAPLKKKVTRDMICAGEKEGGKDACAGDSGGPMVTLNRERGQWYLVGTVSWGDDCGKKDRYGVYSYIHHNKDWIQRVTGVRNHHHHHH

[2] = target: recombinant human MASP2 active protease (amino acids 297-686, C-terminal His Tag) (human, UniProt O00187 297-686); assay: cell-based or functional assay
recombinant human MASP2 active protease (amino acids 297-686, C-terminal His Tag), sequence (O00187 other isoform, or with tags, fused parts or gaps limits assumed): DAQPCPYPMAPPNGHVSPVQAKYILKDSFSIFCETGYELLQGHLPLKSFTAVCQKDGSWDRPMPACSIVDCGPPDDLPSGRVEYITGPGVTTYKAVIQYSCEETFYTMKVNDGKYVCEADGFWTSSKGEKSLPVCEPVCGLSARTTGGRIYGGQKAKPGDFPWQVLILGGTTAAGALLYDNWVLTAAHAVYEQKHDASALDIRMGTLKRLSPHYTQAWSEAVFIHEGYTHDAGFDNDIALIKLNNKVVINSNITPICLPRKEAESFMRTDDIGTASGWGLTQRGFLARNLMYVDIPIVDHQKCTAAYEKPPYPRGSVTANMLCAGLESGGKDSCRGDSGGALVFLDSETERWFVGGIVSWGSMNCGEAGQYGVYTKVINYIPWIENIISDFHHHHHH

Binder: [Sar]ICSRSLP[Oic]I[Pen]IP[PEG5‑CH2CO2H (18 atoms)]-NH2 (disulfide 3-11) [((N-Me)G)-IC+SRSLP-(Oic)-I-(Pen)+IP-(PEG5-CH2CO2H (18 atoms))-NH2]
human MASP1 IC50 [1]: 0.0024 µM | human MASP2 IC50 [2]: 0.11 µM

B2: ((N-Me)G)-((N-Me)I)-C+SRS-((tBu)A)-PPI-(Pen)+I-NH2 (peptide)
peptide: [Sar][NMeI]CSRS[tBuAla]PPI[Pen]I-NH2
modifications: disulfide 3-11; N-terminus assumed
SMILES: CC[C@H](C)[C@H](NC(=O)[C@H]1NC(=O)[C@H]([C@@H](C)CC)NC(=O)[C@@H]2CCCN2C(=O)[C@@H]2CCCN2C(=O)[C@H](CC(C)(C)C)NC(=O)[C@H](CO)NC(=O)[C@H](CCCNC(=N)N)NC(=O)[C@H](CO)NC(=O)[C@@H](NC(=O)[C@H]([C@@H](C)CC)N(C)C(=O)CNC)CSSC1(C)C)C(N)=O
human MASP1 IC50 [1]: 0.0027 µM | human MASP2 IC50 [2]: 0.32 µM

Binder: [Aze]ICSRS[tBuAla]PPI[Pen]IPD-NH2 (disulfide 3-11) [(Azetidine-2-carboxylic acid)-IC+SRS-((tBu)A)-PPI-(Pen)+IPD-NH2]
human MASP1 IC50 [1]: 0.0024 µM | human MASP2 IC50 [2]: 0.068 µM

B7: (ACMP)-IC+SRS-((tBu)A)-PPI-((N-Me)C)+I-NH2 (peptide)
peptide: [cPrCO(1-aminomethyl)]ICSRS[tBuAla]PPI[NMeC]I-NH2
modifications: disulfide 3-11; N-terminus assumed
SMILES: CC[C@H](C)[C@H](NC(=O)[C@@H]1CSSC[C@H](NC(=O)[C@@H](NC(=O)C2(CN)CC2)[C@@H](C)CC)C(=O)N[C@@H](CO)C(=O)N[C@@H](CCCNC(=N)N)C(=O)N[C@@H](CO)C(=O)N[C@@H](CC(C)(C)C)C(=O)N2CCC[C@H]2C(=O)N2CCC[C@H]2C(=O)N[C@@H]([C@@H](C)CC)C(=O)N1C)C(N)=O
human MASP1 IC50 [1]: 0.0026 µM | human MASP2 IC50 [2]: 0.36 µM

B10: ((N-Me)G)-IC+SRSLP-(Oic)-I-(Pen)+IP-(PEG2(13 atoms))-NH2 (peptide)
peptide: [Sar]ICSRSLP[Oic]I[Pen]IP[PEG3]-NH2
modifications: disulfide 3-11; N-terminus assumed
SMILES: CC[C@H](C)[C@H](NC(=O)CNC)C(=O)N[C@H]1CSSC(C)(C)[C@@H](C(=O)N[C@H](C(=O)N2CCC[C@H]2C(=O)NCCOCCOCCOCCC(N)=O)[C@@H](C)CC)NC(=O)[C@H]([C@@H](C)CC)NC(=O)[C@@H]2C[C@@H]3CCCC[C@@H]3N2C(=O)[C@@H]2CCCN2C(=O)[C@H](CC(C)C)NC(=O)[C@H](CO)NC(=O)[C@H](CCCNC(=N)N)NC(=O)[C@H](CO)NC1=O
human MASP1 IC50 [1]: 0.0011 µM | human MASP2 IC50 [2]: 0.023 µM

Binder: [Sar]ICSRS[tBuAla]PPI[Pen]IP-{TTDS(3)-NH2} (disulfide 3-11) [((N-Me)G)-IC+SRS-((tBu)A)-PPI-(Pen)+IP-(TTDS)-NH2]
human MASP1 IC50 [1]: 0.0024 µM | human MASP2 IC50 [2]: 0.058 µM

B12: ((N-Me)G)-IC+SRS-((tBu)A)-PPI-(Pen)+IP-(PEG5(22 atoms))-NH2 (peptide)
peptide: [Sar]ICSRS[tBuAla]PPI[Pen]IP[PEG6]-NH2
modifications: disulfide 3-11; N-terminus assumed
SMILES: CC[C@H](C)[C@H](NC(=O)CNC)C(=O)N[C@H]1CSSC(C)(C)[C@@H](C(=O)N[C@H](C(=O)N2CCC[C@H]2C(=O)NCCOCCOCCOCCOCCOCCOCCC(N)=O)[C@@H](C)CC)NC(=O)[C@H]([C@@H](C)CC)NC(=O)[C@@H]2CCCN2C(=O)[C@@H]2CCCN2C(=O)[C@H](CC(C)(C)C)NC(=O)[C@H](CO)NC(=O)[C@H](CCCNC(=N)N)NC(=O)[C@H](CO)NC1=O
human MASP1 IC50 [1]: 0.0025 µM | human MASP2 IC50 [2]: 0.048 µM

B13: ((N-Me)G)-IC+SRSL-((1S,2S,5R)-3-azabicyclo[3.1.0]hexane-2-carboxylic acid)-PI-(Pen)+IPE-NH2 (peptide)
peptide: [Sar]ICSRSL[Pro(3S,4R-methano)]PI[Pen]IPE-NH2
modifications: disulfide 3-11; N-terminus assumed
SMILES: CC[C@H](C)[C@H](NC(=O)CNC)C(=O)N[C@H]1CSSC(C)(C)[C@@H](C(=O)N[C@H](C(=O)N2CCC[C@H]2C(=O)N[C@@H](CCC(=O)O)C(N)=O)[C@@H](C)CC)NC(=O)[C@H]([C@@H](C)CC)NC(=O)[C@@H]2CCCN2C(=O)[C@@H]2[C@H]3C[C@H]3CN2C(=O)[C@H](CC(C)C)NC(=O)[C@H](CO)NC(=O)[C@H](CCCNC(=N)N)NC(=O)[C@H](CO)NC1=O
human MASP1 IC50 [1]: 0.0025 µM | human MASP2 IC50 [2]: 0.07 µM

Results, then the binder that gave them:

human MASP1 IC50 [1]: 0.0026 µM | human MASP2 IC50 [2]: 0.038 µM
B1: (Nle)-IC+SRS-((tBu)A)-PPI-(Pen)+IPD-NH2 (peptide)
peptide: [Nle]ICSRS[tBuAla]PPI[Pen]IPD-NH2
modifications: disulfide 3-11; N-terminus assumed
SMILES: CCCC[C@H](N)C(=O)N[C@H](C(=O)N[C@H]1CSSC(C)(C)[C@@H](C(=O)N[C@H](C(=O)N2CCC[C@H]2C(=O)N[C@@H](CC(=O)O)C(N)=O)[C@@H](C)CC)NC(=O)[C@H]([C@@H](C)CC)NC(=O)[C@@H]2CCCN2C(=O)[C@@H]2CCCN2C(=O)[C@H](CC(C)(C)C)NC(=O)[C@H](CO)NC(=O)[C@H](CCCNC(=N)N)NC(=O)[C@H](CO)NC1=O)[C@@H](C)CC

human MASP1 IC50 [1]: 0.0026 µM | human MASP2 IC50 [2]: 0.13 µM
B3: (Orn)-IC+SRS-((tBu)A)-PPI-((N-Me)C)+I-NH2 (peptide)
peptide: [Orn]ICSRS[tBuAla]PPI[NMeC]I-NH2
modifications: disulfide 3-11; N-terminus assumed
SMILES: CC[C@H](C)[C@H](NC(=O)[C@@H]1CSSC[C@H](NC(=O)[C@@H](NC(=O)[C@@H](N)CCCN)[C@@H](C)CC)C(=O)N[C@@H](CO)C(=O)N[C@@H](CCCNC(=N)N)C(=O)N[C@@H](CO)C(=O)N[C@@H](CC(C)(C)C)C(=O)N2CCC[C@H]2C(=O)N2CCC[C@H]2C(=O)N[C@@H]([C@@H](C)CC)C(=O)N1C)C(N)=O

human MASP1 IC50 [1]: 0.0024 µM | human MASP2 IC50 [2]: 0.064 µM
B4: WIC+SRS-((tBu)A)-PPI-(Pen)+IPD-NH2 (peptide)
peptide: WICSRS[tBuAla]PPI[Pen]IPD-NH2
modifications: disulfide 3-11; N-terminus assumed
SMILES: CC[C@H](C)[C@H](NC(=O)[C@@H](N)Cc1c[nH]c2ccccc12)C(=O)N[C@H]1CSSC(C)(C)[C@@H](C(=O)N[C@H](C(=O)N2CCC[C@H]2C(=O)N[C@@H](CC(=O)O)C(N)=O)[C@@H](C)CC)NC(=O)[C@H]([C@@H](C)CC)NC(=O)[C@@H]2CCCN2C(=O)[C@@H]2CCCN2C(=O)[C@H](CC(C)(C)C)NC(=O)[C@H](CO)NC(=O)[C@H](CCCNC(=N)N)NC(=O)[C@H](CO)NC1=O

human MASP1 IC50 [1]: 0.0026 µM | human MASP2 IC50 [2]: 0.092 µM
B5: aIC+SRSLP-(Oic)-I-(Pen)+I-OH (peptide)
peptide: [dA]ICSRSLP[Oic]I[Pen]I-OH
modifications: disulfide 3-11; N-terminus assumed
SMILES: CC[C@H](C)[C@H](NC(=O)[C@H]1NC(=O)[C@H]([C@@H](C)CC)NC(=O)[C@@H]2C[C@@H]3CCCC[C@@H]3N2C(=O)[C@@H]2CCCN2C(=O)[C@H](CC(C)C)NC(=O)[C@H](CO)NC(=O)[C@H](CCCNC(=N)N)NC(=O)[C@H](CO)NC(=O)[C@@H](NC(=O)[C@@H](NC(=O)[C@@H](C)N)[C@@H](C)CC)CSSC1(C)C)C(=O)O

human MASP1 IC50 [1]: 0.00245 µM | human MASP2 IC50 [2]: 0.185 µM
B6: AIC+SRS-((tBu)A)-PPI-((N-Me)C)+IPD-OH (peptide)
peptide: AICSRS[tBuAla]PPI[NMeC]IPD-OH
modifications: disulfide 3-11; N-terminus assumed
SMILES: CC[C@H](C)[C@H](NC(=O)[C@H](C)N)C(=O)N[C@H]1CSSC[C@@H](C(=O)N[C@H](C(=O)N2CCC[C@H]2C(=O)N[C@@H](CC(=O)O)C(=O)O)[C@@H](C)CC)N(C)C(=O)[C@H]([C@@H](C)CC)NC(=O)[C@@H]2CCCN2C(=O)[C@@H]2CCCN2C(=O)[C@H](CC(C)(C)C)NC(=O)[C@H](CO)NC(=O)[C@H](CCCNC(=N)N)NC(=O)[C@H](CO)NC1=O

human MASP1 IC50 [1]: 0.0024 µM | human MASP2 IC50 [2]: 0.11 µM
B8: KIC+SRS-((tBu)A)-PPI-((N-Me)C)+I-NH2 (peptide)
peptide: KICSRS[tBuAla]PPI[NMeC]I-NH2
modifications: disulfide 3-11; N-terminus assumed
SMILES: CC[C@H](C)[C@H](NC(=O)[C@@H]1CSSC[C@H](NC(=O)[C@@H](NC(=O)[C@@H](N)CCCCN)[C@@H](C)CC)C(=O)N[C@@H](CO)C(=O)N[C@@H](CCCNC(=N)N)C(=O)N[C@@H](CO)C(=O)N[C@@H](CC(C)(C)C)C(=O)N2CCC[C@H]2C(=O)N2CCC[C@H]2C(=O)N[C@@H]([C@@H](C)CC)C(=O)N1C)C(N)=O

human MASP1 IC50 [1]: 0.0011 µM | human MASP2 IC50 [2]: 0.05 µM
B9: (Nva)-IC+SRS-((tBu)A)-PPI-(((N-Me)C))+I-NH2 (peptide)
peptide: [Nva]ICSRS[tBuAla]PPI[NMeC]I-NH2
modifications: disulfide 3-11; N-terminus assumed
SMILES: CCC[C@H](N)C(=O)N[C@H](C(=O)N[C@H]1CSSC[C@@H](C(=O)N[C@H](C(N)=O)[C@@H](C)CC)N(C)C(=O)[C@H]([C@@H](C)CC)NC(=O)[C@@H]2CCCN2C(=O)[C@@H]2CCCN2C(=O)[C@H](CC(C)(C)C)NC(=O)[C@H](CO)NC(=O)[C@H](CCCNC(=N)N)NC(=O)[C@H](CO)NC1=O)[C@@H](C)CC

human MASP1 IC50 [1]: 0.0025 µM | human MASP2 IC50 [2]: 0.19 µM
Binder: AICSRS[tBuAla]P[Oic]ICIPD-NH2 (disulfide 3-11; also: HCl salt) [AIC+SRS-((tBu)A)-P-(Oic)-IC+IPD-NH2 (HCl salt)]

human MASP1 IC50 [1]: 0.0026 µM | human MASP2 IC50 [2]: 0.083 µM
B11: AIC+SRS-((tBu)A)-PPI-(Pen)+IPD-NH2 (peptide)
peptide: AICSRS[tBuAla]PPI[Pen]IPD-NH2
modifications: disulfide 3-11; N-terminus assumed
SMILES: CC[C@H](C)[C@H](NC(=O)[C@H](C)N)C(=O)N[C@H]1CSSC(C)(C)[C@@H](C(=O)N[C@H](C(=O)N2CCC[C@H]2C(=O)N[C@@H](CC(=O)O)C(N)=O)[C@@H](C)CC)NC(=O)[C@H]([C@@H](C)CC)NC(=O)[C@@H]2CCCN2C(=O)[C@@H]2CCCN2C(=O)[C@H](CC(C)(C)C)NC(=O)[C@H](CO)NC(=O)[C@H](CCCNC(=N)N)NC(=O)[C@H](CO)NC1=O
